Test results from IntAct's records for PubMed 21946560.

B1: DNA replication regulator DPB11 (Saccharomyces cerevisiae), P47027 (parent)
chain: MKPFQGITFCPTAINNEILAKKISKKIIKLGGIFSKDLTRQVNVLVVGSTTNTNKFKFAVKHRFDIIFIDIQAIDDIYQLWLSGENILPDSNTATMTGSTYEMLKILYRRFSFKYLHNFNIFIGRITDTNITSIDSLVRSIKKLGCSSYNYQNFVIKDTSSHNDDDDQGQNGQISIFVTDTLLGARVNAAIEQNIPIVHFKWILDCQKRSALLPYDPYYLLPNIKDLPYDSIGSNSCDCWDKINTTFPTNIDAQSSLQRQQSSSTLTPSLPKTSSLLNKFKPKGEKIWDKAMSLQQHSKTNFSVLGQSPLSINNKQEDLSDNSTLIFKNCAFIIHHIFPGNHRSILTKIVVQNGGKIETSYLSGIYDHSYYIIPSNKALDSFNDLPEIIDDNDGIVTEFFIERCLYYQKLLHPIDLWSKPFLSTIEFQVSSSSKLLHHEFSSSPFLNVTITGFSGVELLHLTKVLNLLKPMGINYVEYLNKSTDILLINLAALPSIPKTHPLWSNEFSDLFTQFCINNNNDDPGDNNRKDFQNNSILRNSMKRKIEYIKKFHSIPVVTPAFIFKLLSAASGENNEIFLNNIKWCIICPRGHKDDFKCKIKKPYYTSISSEKKYQNNDPKIDKTILLKRNNSSLSEHSMKDTKNELLQKIRETDSGRKKRSVSSSIMDVSSERQMPDTKRIKLESLPKNFVPKQIKRTTSWGTIMSENVPTEQPTAISNPEEIPRTEEVSHTQVTYGSIQDKKRTASLEKPMRRQTRNQTKELDS
partner: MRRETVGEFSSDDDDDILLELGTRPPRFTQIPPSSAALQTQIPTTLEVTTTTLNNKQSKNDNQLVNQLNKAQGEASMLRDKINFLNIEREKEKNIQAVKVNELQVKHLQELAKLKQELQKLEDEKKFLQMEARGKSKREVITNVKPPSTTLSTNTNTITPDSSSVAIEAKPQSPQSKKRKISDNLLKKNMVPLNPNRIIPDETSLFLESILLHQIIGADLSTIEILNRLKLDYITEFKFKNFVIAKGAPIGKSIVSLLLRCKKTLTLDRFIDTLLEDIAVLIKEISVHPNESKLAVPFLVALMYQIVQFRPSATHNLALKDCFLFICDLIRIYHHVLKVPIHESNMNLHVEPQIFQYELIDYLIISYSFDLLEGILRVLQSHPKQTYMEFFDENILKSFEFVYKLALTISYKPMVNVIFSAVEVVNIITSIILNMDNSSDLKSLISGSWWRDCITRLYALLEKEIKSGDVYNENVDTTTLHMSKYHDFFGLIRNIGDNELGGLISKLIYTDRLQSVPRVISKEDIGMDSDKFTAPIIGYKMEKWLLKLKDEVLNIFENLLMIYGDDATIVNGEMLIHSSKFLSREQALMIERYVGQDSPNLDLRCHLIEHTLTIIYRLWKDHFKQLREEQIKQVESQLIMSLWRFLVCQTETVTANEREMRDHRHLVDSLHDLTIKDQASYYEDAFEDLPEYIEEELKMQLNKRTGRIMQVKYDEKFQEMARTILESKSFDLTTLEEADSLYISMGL
B2: DNA repair protein RAD9 (Saccharomyces cerevisiae), P14737 (parent)
chain: MSGQLVQWKSSPDRVTQSAIKEALHSPLADGDMNEMNVPVDPLENKVNSTNIIEGSPKANPNPVKFMNTSEIFQKSLGLLDESPRHDDELNIEVGDNDRPNANILHNERTPDLDRIANFFKSNRTPGKENLLTKYQSSDLEDTPLMLRKKMTFQTPTDPLEQKTFKKLKSDTGFCYYGEQNDGEENASLEVTEADATFVQMAERSADNYDCALEGIVTPKRYKDELSKSGGMQDERVQKTQIMISAESPNSISSYDKNKITGNGRTTRNVNKVFNNNEDNIGAIEEKNPVKKKSENYSSDDLRERNNQIIQSNESEEINELEKNLNVSGRENDVNNLDIDINSAVSGTPSRNNAEEEMYSSESVNNREPSKKWIFRYSKDKTENNSNRSTQIVNNPRTQEMPLDSISIDTQPLSKSFNTETNNELETQIIVSSLSQGISAQKGPVFHSTGQTEEIKTQIINSPEQNALNATFETPVTLSRINFEPILEVPETSSPSKNTMSKPSNSSPIPKEKDTFNIHEREVETNNVFSNDIQNSSNAATRDDIIIAGSSDFNEQKEITDRIYLQLSGKQISDSGSDETERMSPNELDTKKESTIMSEVELTQELPEVEEQQDLQTSPKKLVVEEETLMEIKKSKGNSLQLHDDNKECNSDKQDGTESLDVALIEHESKGQSSELQKNLMQLFPSESQEIIQNRRTIKRRQKDTIEIGEEEENRSTKTSPTKHLKRNSDLDAASIKREPSCSITIQTGETGSGKDSKEQSYVFPEGIRTADNSFLSKDDIIFGNAVWCQYTWNYKFYPGILLEVDTNQDGCWIYFETGRSLTKDEDIYYLDIRIGDAVTFDGNEYVVVGLECRSHDLNIIRCIRGYDTVHLKKKNASGLLGKRTLIKALSSISLDLSEWAKRAKIILEDNEKNKGDAYRYLRHPIRGRKSMTNVLSPKKHTDDEKDINTHTEVYNNEIESSSEKKEIVKKDSRDALAEHAGAPSLLFSSGEIRTGNVFDKCIFVLTSLFENREELRQTIESQGGTVIESGFSTLFNFTHPLAKSLVNKGNTDNIRELALKLAWKPHSLFADCRFACLITKRHLRSLKYLETLALGWPTLHWKFISACIEKKRIVPHLIYQYLLPSGESFRLSLDSPSKGGIIKSNNIFSFYTQFLRGSNLRDQICGVKKMLNDYIVIVWGRSELDSFVKFAFACLSAGRMLTIDLPNIDVDDTEPLLNALDSLVPRIGSELSNRKLKFLIYANENNGKSQMKLLERLRSQISLKFKKFNYIFHTESKEWLIQTIINEDTGFHDDITDNDIYNTISEVR
partner: B1 chain

Variants of: B1
Conditions: with lcd1_yeast LCD1, Q04377

Row | effect of a mutation on the interaction | Variant
1 | decreasing interaction | G736A
2 | decreasing interaction | Y735A

Variants of: B1
Conditions: with lcd1_yeast LCD1, Q04377
Remark: another data set of the same source

Row | effect of a mutation on the interaction | Variant
3 | disrupting interaction | G701A
4 | disrupting interaction | W700A

Variants of: B1
Conditions: with lcd1_yeast LCD1, Q04377
Remark: another data set of the same source

Row | effect of a mutation on the interaction | Variant
5 | decreasing interaction | G701A

Variants of: B2
Conditions: with dpb11_yeast DPB11, P47027

Row | effect of a mutation on the interaction | Variant
6 | disrupting interaction | T474A
7 | disrupting interaction | S462A

Variants of: B2
Conditions: with dpb11_yeast DPB11, P47027
Remark: another data set of the same source

Row | effect of a mutation on the interaction | Variant
8 | decreasing interaction | T474A
